Measurements reported in PMC4141738.

Target: endogenous PABPC1 of HEK 293T cells (human (endogenous in HEK 293T)) (UniProt P11940)
Sequence of UniProt P11940 (P11940 whole entry): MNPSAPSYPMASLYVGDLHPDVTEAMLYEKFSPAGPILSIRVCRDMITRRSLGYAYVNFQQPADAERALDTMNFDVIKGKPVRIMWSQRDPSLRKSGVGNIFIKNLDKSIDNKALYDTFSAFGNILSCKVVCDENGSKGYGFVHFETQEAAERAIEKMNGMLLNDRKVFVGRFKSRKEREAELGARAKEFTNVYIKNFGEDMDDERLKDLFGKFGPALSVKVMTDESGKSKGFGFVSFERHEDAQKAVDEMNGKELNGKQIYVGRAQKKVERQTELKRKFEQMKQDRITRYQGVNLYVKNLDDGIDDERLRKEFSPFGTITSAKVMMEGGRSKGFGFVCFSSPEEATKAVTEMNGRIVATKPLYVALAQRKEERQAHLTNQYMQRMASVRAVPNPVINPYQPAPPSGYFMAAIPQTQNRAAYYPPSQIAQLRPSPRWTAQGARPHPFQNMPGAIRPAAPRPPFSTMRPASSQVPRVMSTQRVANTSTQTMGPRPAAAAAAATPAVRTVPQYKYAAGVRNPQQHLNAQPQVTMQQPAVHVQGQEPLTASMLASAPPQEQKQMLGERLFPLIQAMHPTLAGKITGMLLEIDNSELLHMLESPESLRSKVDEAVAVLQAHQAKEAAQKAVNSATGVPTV

How did the miniμ ter310 construct A reporter mRNA level (RT-qPCR) relative to LacZ-MS2 on tethering of eIF4GId-MS2 in HeLa cells turn out when “eIF4GI isoform d fused to MS2-HA (eIF4GId-MS2) (natural protein)” was run?
The miniμ ter310 construct A reporter mRNA level (RT-qPCR) relative to LacZ-MS2 on tethering of eIF4GId-MS2 in HeLa cells was 4 fold.

With “eIF4GI isoform e fused to MS2-HA (eIF4GIe-MS2) (natural protein)” as the substance, how does the miniμ ter310 construct A reporter mRNA level (RT-qPCR) relative to LacZ-MS2 on tethering of eIF4GIe-MS2 in HeLa cells read?
Its miniμ ter310 construct A reporter mRNA level (RT-qPCR) relative to LacZ-MS2 on tethering of eIF4GIe-MS2 in HeLa cells is 4 fold.
